Assay results published in publication PMC1298937, “A Novel Endogenous Inhibitor of the Secreted Streptococcal NAD-Glycohydrolase” (PLoS Pathogens, 2005).

Assays:
[1] = target: 6X-His-tagged SPN (SPN-H) expressed from pMAM3.18 (Streptococcus pyogenes strain JRS4); test: SEC + other: densitometry of SDS-PAGE; SPN-IFS complex assembled in vivo and purified from the cytoplasm of E. coli TOP10(pMAM3.18); Superdex 75 HR 10/30, 20 mM Tris pH 8.5, 100 mM NaCl; peak fractions on Coomassie-stained SDS-PAGE compared with known concentrations of purified SPN and IFS
[2] = target: T1, SPN secreted by S. pyogenes JRS4 (culture supernatant) (Streptococcus pyogenes strain JRS4 …); test: enzyme inhibition kinetics (competitive model); apparent constant; purified IFS (up to 2.3 nM) with SPN from JRS4 culture supernatant (0.125 U/ml) and varying beta-NAD+ (up to 1.2 mM) in PBS at 37 C; fluorescence of residual beta-NAD+; simultaneous fit; conditions: one partner purified
T1 chain: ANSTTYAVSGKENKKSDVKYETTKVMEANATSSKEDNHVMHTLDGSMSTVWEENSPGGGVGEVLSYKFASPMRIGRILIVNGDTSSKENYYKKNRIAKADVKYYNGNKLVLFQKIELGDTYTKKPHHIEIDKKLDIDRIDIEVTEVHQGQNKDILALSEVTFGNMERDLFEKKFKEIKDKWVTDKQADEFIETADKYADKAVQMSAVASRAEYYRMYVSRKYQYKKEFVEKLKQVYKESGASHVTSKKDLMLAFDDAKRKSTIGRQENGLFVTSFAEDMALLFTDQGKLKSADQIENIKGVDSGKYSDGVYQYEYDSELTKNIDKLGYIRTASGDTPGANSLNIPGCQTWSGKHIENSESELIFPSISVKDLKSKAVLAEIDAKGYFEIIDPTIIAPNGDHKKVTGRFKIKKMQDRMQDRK

B1: Immunity factor for SPN (IFS) with C-terminal c-myc and 6X-His tags (IFS-H), expressed from pMAM3.19 (natural protein)
chain: MYKVPKGLEHYQKMFQKEVTVNDLKKYLIGSDKEYRITRRDSYMGDISDPEVILEYGVYPAFIKGYTQLKANIEEALLEMSNSGQALDIYQAVQTLNAENMLLNYYESLPFYLNRQSILANITKALKDAHIREAMAHYKLGEFAHYQDTMLDMVERTIETF
notes: source: E. coli TOP10(pMAM3.19), arabinose-induced: cytoplasmic extract; purified (TALON, Resource Q); not shown: c-myc, C-terminal, kept; 6X-His, C-terminal, kept
- stoichiometry N [1]: 1
- Ki [2]: 2 nM
